Laboratory results from paper PMC12311796.

Key:
[1] = target: T1, BRD4 N-terminal tandem bromodomain fragment (BD1-BD2) (Homo sapiens, UniProt O60885 49-460); experiment: SPR; SPR: 10 mM HEPES pH 7.4, 150 mM NaCl, 50 uM EDTA, 0.005% P20, 24 C; MST: PBS, 0.05% Tween-20, 22 C; NMR: 20 mM Na-phosphate pH 7.5, 80 mM KCl, 5% D2O, 25 C; nucleosome: 20 mM Tris-HCl pH 8.0, NaCl 2 M to 250 mM; conditions: protein: recombinant; tags: N-terminal His8 (RED-tris-NTA label for MST; Ni-NTA capture for SPR); parallel 3-quartet G4; unimolecular fraction about 50% in the NMR sample
[2] = target: T1, BRD4 N-terminal tandem bromodomain …; experiment: NMR; 80 mM KCl; 1:2 BRD4:G4 model; SPR: 10 mM HEPES pH 7.4, 150 mM NaCl, 50 uM EDTA, 0.005% P20, 24 C; MST: PBS, 0.05% Tween-20, 22 C; NMR: 20 mM Na-phosphate pH 7.5, 80 mM KCl, 5% D2O, 25 C; nucleosome: 20 mM Tris-HCl pH 8.0, NaCl 2 M to 250 mM; conditions: protein: recombinant; tags: N-terminal His8 (RED-tris-NTA label for MST; Ni-NTA capture for SPR); parallel 3-quartet G4; unimolecular fraction about 50% in the NMR sample
[3] = target: T1, BRD4 N-terminal tandem bromodomain …; experiment: SPR; 1-200 uM ODN; SPR: 10 mM HEPES pH 7.4, 150 mM NaCl, 50 uM EDTA, 0.005% P20, 24 C; MST: PBS, 0.05% Tween-20, 22 C; NMR: 20 mM Na-phosphate pH 7.5, 80 mM KCl, 5% D2O, 25 C; nucleosome: 20 mM Tris-HCl pH 8.0, NaCl 2 M to 250 mM; conditions: protein: recombinant, tags: N-terminal His8 (RED-tris-NTA label for MST; Ni-NTA capture for SPR)
[4] = target: T1, BRD4 N-terminal tandem bromodomain …; experiment: SPR; no ligand; SPR: 10 mM HEPES pH 7.4, 150 mM NaCl, 50 uM EDTA, 0.005% P20, 24 C; MST: PBS, 0.05% Tween-20, 22 C; NMR: 20 mM Na-phosphate pH 7.5, 80 mM KCl, 5% D2O, 25 C; nucleosome: 20 mM Tris-HCl pH 8.0, NaCl 2 M to 250 mM; conditions: protein: recombinant; tags: N-terminal His8 (RED-tris-NTA label for MST; Ni-NTA capture for SPR); duplex flanks around G4 with opposing C-rich strand; about 50% G4 folded without PDS

## GGGAGGGAGGGAGGG (structured_DNA) [G4 (SE G4)]
[1]
  Kd: 5 ± 3 µM
[2]
  Kd: 6 ± 1 µM

## CCCCCTCCCCCTCCCCCTCCCCC (structured_DNA) [iM]
[3]; i-motif
  binding result: no binding

## CAATCGGATCGAATTCGATCCGATTG (structured_DNA) [ds26]
[3]; hairpin
  binding result: no binding

B1: dsG4 (mixed)
DNA 1: ATCACACTTGGCAGGGAGGGAGGGAGGGATGCAGCTGATCA
DNA 2: TGATCAGCTGCATCCCTCCCTCCCTCCCTGCCAAGTGTGAT
[4]
  Kd: 5 ± 3 µM

B2: dsCntr (dsDNA)
DNA 1: ATCACACTTGGCTTTCAACCAGTCTATGCTGCAGCTGATCA
DNA 2: TGATCAGCTGCAGCATAGACTGGTTGAAAGCCAAGTGTGAT
[3]; blunt
  binding result: no binding
